Assay results: article PMC12412624, “Engineered Cas12j‐8 is a Versatile Platform for Multiplexed Genome Modulation in Mammalian Cells”
Residue numbers refer to the chain shown, from its start.

Key:
[1] = tested on: T1, dCas12j-8 E258R E258R;D369A;E567A;D658A (bacteriophage (metagenome)); conditions: HEK293T cells; panel 1c (compare within a panel only); scale: mean GFP / mean GFP of wild type, printed, no background subtraction
T1 sequence: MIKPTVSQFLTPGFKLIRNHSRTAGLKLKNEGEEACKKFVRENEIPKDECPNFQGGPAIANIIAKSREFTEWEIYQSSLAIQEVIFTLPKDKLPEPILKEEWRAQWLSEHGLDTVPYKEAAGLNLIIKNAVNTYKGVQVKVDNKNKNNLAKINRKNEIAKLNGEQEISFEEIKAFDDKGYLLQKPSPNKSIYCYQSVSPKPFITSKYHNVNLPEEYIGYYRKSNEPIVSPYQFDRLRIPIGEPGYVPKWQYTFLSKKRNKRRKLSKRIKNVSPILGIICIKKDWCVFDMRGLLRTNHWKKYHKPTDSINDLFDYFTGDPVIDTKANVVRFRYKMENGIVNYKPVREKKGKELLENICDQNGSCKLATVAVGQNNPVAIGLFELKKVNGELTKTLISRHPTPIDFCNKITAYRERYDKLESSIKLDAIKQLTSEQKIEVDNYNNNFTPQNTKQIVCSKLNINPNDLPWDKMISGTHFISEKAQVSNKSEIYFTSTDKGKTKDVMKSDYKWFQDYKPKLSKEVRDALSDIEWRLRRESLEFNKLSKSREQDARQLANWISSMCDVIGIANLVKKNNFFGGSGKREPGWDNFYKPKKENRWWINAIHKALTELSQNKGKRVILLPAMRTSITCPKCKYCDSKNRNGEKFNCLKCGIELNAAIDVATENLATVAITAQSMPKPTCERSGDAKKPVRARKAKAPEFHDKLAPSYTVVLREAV

[2] = tested on: T2, dCas12j-8 E258R+D142R E258R;D142R;D369A;E567A;D658A (bacteriophage (metagenome)); conditions: HEK293T cells; panel 1d (compare within a panel only); scale: mean GFP / mean GFP of wild type, printed, no background subtraction
T2 sequence: T1 sequence with D142R

[3] = tested on: T3, dCas12j-8 E258R+E157R E258R;E157R;D369A;E567A;D658A (bacteriophage (metagenome)); conditions: HEK293T cells; panel 1d (compare within a panel only); scale: mean GFP / mean GFP of wild type, printed, no background subtraction
T3 sequence: T1 sequence with E157R

[4] = tested on: T4, dCas12j-8 D313R D313R;D369A;E567A;D658A (bacteriophage (metagenome)); conditions: HEK293T cells; panel 1c (compare within a panel only); scale: mean GFP / mean GFP of wild type, printed, no background subtraction
T4 sequence: T1 sequence with R258E, D313R

Q: Which binding signal [1] does the source give for “CUUUCAAGACUAAUAGAUUGCUCCUUACGAGGAGACACUCCCUAUCAGUGAUAGAG / TTNACTCCCTATCAGTGATAGAG / CTCTATCACTGATAGGGAGTNAA [TetO]” here?
A: 1.68

Q: What about the binding signal [2] of the same sequence?
A: 1.87

Q: And the binding signal [3]?
A: 2.16

Q: What about the binding signal [4] of the same sequence?
A: 1.59
